Source: patent publication US20090297501A1 (Chugai, published 2009)
Where a chain is given by its changes, count along the chain named. Read-outs that look alike come from different tables or passages of the source.

T1: human Mpl (human, UniProt P40238 26-635)
T1 sequence (looked up): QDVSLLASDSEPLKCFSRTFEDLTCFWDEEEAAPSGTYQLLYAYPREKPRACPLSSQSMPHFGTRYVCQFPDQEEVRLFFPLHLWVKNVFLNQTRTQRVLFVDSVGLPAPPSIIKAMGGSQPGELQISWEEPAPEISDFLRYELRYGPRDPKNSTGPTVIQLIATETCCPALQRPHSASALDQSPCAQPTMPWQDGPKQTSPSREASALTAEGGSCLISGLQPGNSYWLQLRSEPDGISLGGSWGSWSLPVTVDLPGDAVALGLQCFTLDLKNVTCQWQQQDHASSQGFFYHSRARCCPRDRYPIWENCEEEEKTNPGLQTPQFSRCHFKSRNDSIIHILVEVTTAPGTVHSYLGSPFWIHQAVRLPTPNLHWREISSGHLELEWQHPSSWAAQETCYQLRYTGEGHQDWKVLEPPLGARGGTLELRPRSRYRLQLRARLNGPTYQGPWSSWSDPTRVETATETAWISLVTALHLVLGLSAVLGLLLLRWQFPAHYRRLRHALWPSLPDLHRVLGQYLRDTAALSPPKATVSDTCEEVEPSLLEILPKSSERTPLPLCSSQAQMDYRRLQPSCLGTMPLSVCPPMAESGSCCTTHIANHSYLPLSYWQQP

B1: humanized anti-human Mpl antibody hVB22B u2-wz4 sc(Fv)2 (bulk, before separation of the structural isomers) (scFv)
chain: QVQLVQSGPEVKKPGASVKVSCKASGYTFTNSWMNWVRQRPGKGLEWIGRIYPGDGETIYNGKFRVRVTITADESTSTAYMQLSSLRSEDTAVYYCARGYDDYSFAYWGQGTTVTVSSGGGGSGGGGSGGGGSDIVMTQSPLSLPVTPGEPASISCRSSKSLLHSNGNTYLYWFLQKPGQSPQLLIYRMSNLASGVPDRFSGSGSGTDFTLKISRVEAEDVGVYYCMQHIEYPFTFGQGTKLEIKGGGGSGGGGSGGGGSQVQLVQSGPEVKKPGASVKVSCKASGYTFTNSWMNWVRQRPGKGLEWIGRIYPGDGETIYNGKFRVRVTITADESTSTAYMQLSSLRSEDTAVYYCARGYDDYSFAYWGQGTTVTVSSGGGGSGGGGSGGGGSDIVMTQSPLSLPVTPGEPASISCRSSKSLLHSNGNTYLYWFLQKPGQSPQLLIYRMSNLASGVPDRFSGSGSGTDFTLKISRVEAEDVGVYYCMQHIEYPFTFGQGTKLEIK
notes: sc(Fv)2, a single chain VH1-linker-VL2-linker-VH3-linker-VL4, not Flag-tagged; also called humanized VB22B u2-wz4 sc(Fv)2 bulk
B2: hVB22B u2-wz4 sc(Fv)2 peak 2 (single chain diabody type structural isomer) (scFv)
chain: B1 chain
notes: also called purified u2-wz4 peak 2
B3: hVB22B u2-wz4 sc(Fv)2 peak 1 (bivalent scFv type structural isomer) (scFv)
chain: B1 chain
notes: also called purified u2-wz4 peak 1
B4: modified hVB22B u2-wz4(v1) sc(Fv)2 (scFv)
chain: B1 chain with Q39E, Q176E, Q299K, Q436K
B5: modified hVB22B u2-wz4(v3) sc(Fv)2 (scFv)
chain: B1 chain with Q39E, Q176K, Q299K, Q436E
B6: anti-human Mpl antibody VB22B sc(Fv)2 peak 2 (single chain diabody type structural isomer) (scFv)
chain: QVQLQQSGPELVKPGASVKISCKASGYAFTNSWMNWVKQRPGKGLEWIGRIYPGDGETIYNGKFRVKATLTADKSSSTAYMDISSLTSEDSAVYFCARGYDDYSFAYWGQGTLVTVSAGGGGSGGGGSGGGGSDIVMTQAAPSIPVTPGESVSISCRSSKSLLHSNGNTYLYWFLQRPGQSPQLLIYRMSNLASGVPDRFSGSGSGTAFTLRISRVEAEDVGVYYCMQHIEYPFTFGSGTKLEIKGGGGSGGGGSGGGGSQVQLQQSGPELVKPGASVKISCKASGYAFTNSWMNWVKQRPGKGLEWIGRIYPGDGETIYNGKFRVKATLTADKSSSTAYMDISSLTSEDSAVYFCARGYDDYSFAYWGQGTLVTVSAGGGGSGGGGSGGGGSDIVMTQAAPSIPVTPGESVSISCRSSKSLLHSNGNTYLYWFLQRPGQSPQLLIYRMSNLASGVPDRFSGSGSGTAFTLRISRVEAEDVGVYYCMQHIEYPFTFGSGTKLEIK
B7: anti-human Mpl antibody VB22B sc(Fv)2 (scFv)
chain: B6 chain

How the values were obtained:
monkey Mpl [1] = biological target: monkey Mpl (monkey); assay: cell-based or functional assay
human Mpl [2] = biological target: T1, human Mpl; assay: cell-based or functional assay
[3] = biological target: T2, fusion protein of GST and MG10 (Gln213 to Ala231 in the amino acid sequence of human Mpl) (human, UniProt P40238 213-231); assay: Biacore 3000, MG10-GST amine-coupled on CM5, sc(Fv)2 as analyte, bivalent analyte model, n = 3
T2 construct: the parts follow the printed name MG10-GST; also called MG10-GST fusion protein; not shown: glutathione S-transferase (GST)
Procedure: The binding activities of hVB22B u2-wz4 sc(Fv)2, and peak 1 and peak 2 separated from hVB22B u2-wz4 sc(Fv)2 were evaluated as described below. Sensor Chip CM5 Biacore) was placed in Biacore 3000 (Biacore), and a fusion protein of MG10 (Gln213 to Ala231 of human Mpl) and GST described in Section 2-1 was immobilized onto the chip by the amine-coupling method. HSS-EP Buffer (Biacore) was used as the running buffer for the measurement. The flow rate was 20 μl/min. Six concentrations of each of humanized VB22B u2-wz4 sc(Fv)2 bulk, peak 1, and peak 2 within about 5 to 150 nM were prepared using HBS-EP Buffer. Each of the samples was injected over the above-described MG10-immobilized cell for 2 minutes to reveal the binding region. Then, the measurement was conducted for 2 minutes to reveal the dissociation region. VB22B sc(Fv)2 bound to the MG10-GST fusion protein was removed by injecting 20 mM HCl for 1 minute to recover the immobilized cell. The association rate constant (ka) and dissociation rate constant (kd) were calculated from the obtained sensorgram using the BIAevaluation Version 3.1 ([…]) software applying the bivalent analyte model.

monkey Mpl [4] = biological target: monkey Mpl (monkey); assay: cell-based or functional assay; remark: listed apart in the source
human Mpl [5] = biological target: T1, human Mpl; assay: cell-based or functional assay; remark: listed apart in the source
monkey Mpl [6] = biological target: monkey Mpl (monkey); assay: cell-based or functional assay; remark: listed apart in the source
human Mpl [7] = biological target: T1, human Mpl; assay: cell-based or functional assay; remark: listed apart in the source
[8] = biological target: Mpl on the BaF3 cells used in FIG. 33 (human or monkey, not stated); assay: cell-based or functional assay

| Binder | EC50 (read off the curve) (growth of BaF3-monkey Mpl cells, WST-8) [B] (monkey Mpl [1]) | EC50 (read off the curve) (growth of BaF3-human Mpl cells, WST-8) [A] (human Mpl [2]) | Kd [3] | koff [3] | kon [3] | EC50 (read off the curve) (growth of BaF3-monkey Mpl cells, WST-8) [B] (monkey Mpl [4]) | EC50 (read off the curve) (growth of BaF3-human Mpl cells, WST-8) [A] (human Mpl [5]) | EC50 (read off the curve) (growth of BaF3-monkey Mpl cells, WST-8) [B] (monkey Mpl [6]) | EC50 (read off the curve) (growth of BaF3-human Mpl cells, WST-8) [A] (human Mpl [7]) | EC50 (read off the curve) (growth of Mpl-expressing BaF3 cells, WST-8; cell line not stated) [8] |
| --- | --- | --- | --- | --- | --- | --- | --- | --- | --- | --- |
| B1 | ~0.02 nM | ~0.06 nM | 10.2 nM | 0.00617 s⁻¹ | 608000 M⁻¹ s⁻¹ | ~0.04 nM | ~0.04 nM |  |  |  |
| B2 | ~0.02 nM | ~0.05 nM | 9.92 nM | 0.00566 s⁻¹ | 571000 M⁻¹ s⁻¹ | ~0.03 nM | ~0.04 nM |  |  |  |
| B3 |  | ~0.09 nM | 12.4 nM | 0.00727 s⁻¹ | 586000 M⁻¹ s⁻¹ |  | ~0.07 nM |  |  |  |
| B4 | ~0.04 nM | ~0.04 nM |  |  |  |  |  |  |  |  |
| B5 |  | ~0.1 nM |  |  |  |  |  |  |  |  |
| B6 |  |  |  |  |  |  |  | ~0.02 nM | ~0.008 nM | ~0.6 ng/mL |
| B7 |  |  |  |  |  |  |  | ~0.03 nM | ~0.01 nM |  |
